From article PMC5779224, “Autoinhibition of ankyrin-B/G membrane target bindings by intrinsically disordered segments from the tail regions” (eLife, 2017)

Assays:
[1] = target: T1, AnkG 38–903 (MBD + AI-c + AI-b) (rat, UniProt O70511-1 38-903); experiment: ITC; VP-ITC MicroCal, 25 °C; proteins in 50 mM Tris-HCl pH 7.8, 1 mM DTT, 1 mM EDTA with 100 mM or 500 mM NaCl as required; who was titrated is not told; details: both partners purified
T1 construct: numbers count on: rat AnkG NM_001033984.1 (MBD-UPA); also called extended AnkG MBD; source: E. coli BL21 (DE3), purified (Ni2+-NTA, size exclusion)
T1 sequence (looked up): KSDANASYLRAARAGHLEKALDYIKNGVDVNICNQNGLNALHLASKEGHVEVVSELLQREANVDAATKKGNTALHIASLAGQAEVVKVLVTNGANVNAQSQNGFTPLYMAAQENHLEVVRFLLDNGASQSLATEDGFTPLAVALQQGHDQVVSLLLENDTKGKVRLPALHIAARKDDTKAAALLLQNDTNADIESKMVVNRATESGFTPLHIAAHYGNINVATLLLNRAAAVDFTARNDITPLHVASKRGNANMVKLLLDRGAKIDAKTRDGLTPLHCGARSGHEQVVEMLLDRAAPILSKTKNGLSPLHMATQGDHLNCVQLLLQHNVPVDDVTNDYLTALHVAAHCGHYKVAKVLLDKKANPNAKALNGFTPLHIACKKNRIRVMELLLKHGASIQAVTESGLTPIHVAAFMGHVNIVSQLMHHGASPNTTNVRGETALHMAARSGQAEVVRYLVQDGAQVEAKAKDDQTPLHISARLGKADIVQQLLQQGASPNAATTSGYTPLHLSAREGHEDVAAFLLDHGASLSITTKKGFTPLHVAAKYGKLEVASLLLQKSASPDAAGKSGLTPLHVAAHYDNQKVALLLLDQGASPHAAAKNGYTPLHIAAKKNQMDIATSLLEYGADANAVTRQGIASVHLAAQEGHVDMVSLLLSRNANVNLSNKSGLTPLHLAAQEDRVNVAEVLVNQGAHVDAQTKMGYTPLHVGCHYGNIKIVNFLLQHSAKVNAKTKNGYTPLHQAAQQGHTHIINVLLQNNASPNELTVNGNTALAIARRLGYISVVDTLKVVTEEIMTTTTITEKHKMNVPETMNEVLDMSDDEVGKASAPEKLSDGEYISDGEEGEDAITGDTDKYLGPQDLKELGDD

[2] = target: T2, AnkB 28–965 (MBD + AI-c + AI-b) (human, UniProt Q01484-2 28-965); experiment: as above; details: both partners purified
T2 construct: numbers count on: human 220 kDa AnkB NM_020977.3; also called extended MBD containing the entire linker; source: E. coli BL21 (DE3), purified (Ni2+-NTA, size exclusion)
T2 sequence (looked up): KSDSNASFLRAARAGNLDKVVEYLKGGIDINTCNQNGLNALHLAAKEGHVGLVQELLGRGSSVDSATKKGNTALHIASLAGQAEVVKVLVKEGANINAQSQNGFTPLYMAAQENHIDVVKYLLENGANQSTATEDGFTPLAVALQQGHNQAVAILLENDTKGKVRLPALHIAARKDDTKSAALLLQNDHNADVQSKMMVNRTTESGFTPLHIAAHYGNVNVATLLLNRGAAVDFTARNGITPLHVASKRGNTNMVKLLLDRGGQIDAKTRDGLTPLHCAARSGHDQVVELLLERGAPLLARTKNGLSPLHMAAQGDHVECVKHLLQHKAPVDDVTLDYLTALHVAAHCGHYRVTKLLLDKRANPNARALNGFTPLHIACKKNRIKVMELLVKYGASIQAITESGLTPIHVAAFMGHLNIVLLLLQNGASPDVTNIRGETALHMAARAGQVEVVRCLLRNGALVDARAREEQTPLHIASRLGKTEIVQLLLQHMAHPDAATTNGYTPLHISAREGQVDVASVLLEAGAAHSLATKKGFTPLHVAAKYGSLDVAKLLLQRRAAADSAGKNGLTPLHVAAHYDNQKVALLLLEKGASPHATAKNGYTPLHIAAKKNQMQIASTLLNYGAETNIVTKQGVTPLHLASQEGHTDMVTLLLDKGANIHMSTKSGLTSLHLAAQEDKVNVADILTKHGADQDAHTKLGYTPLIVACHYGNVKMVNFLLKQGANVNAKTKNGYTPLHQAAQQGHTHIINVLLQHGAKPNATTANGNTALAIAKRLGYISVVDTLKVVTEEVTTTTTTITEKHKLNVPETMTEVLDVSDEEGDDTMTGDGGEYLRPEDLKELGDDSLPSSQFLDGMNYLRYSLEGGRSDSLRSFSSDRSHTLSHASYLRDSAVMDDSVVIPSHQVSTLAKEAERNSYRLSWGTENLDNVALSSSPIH

B1: Nav1.2 (aa 1035–1129) (domain or fragment, mouse, UniProt B1AWN6 1035-1129, looked up)
chain: KALDEIKPLEDLNNKKDSCISNHTTIEIGKDLNYLKDGNGTTSGIGSSVEKYVVDESDYMSFINNPSLTVTVPIAVGESDFENLNTEEFSSESDM
notes: source: E. coli BL21 (DE3), purified (Ni2+-NTA, size exclusion)
B1: binds [1]; binds [2].
